This note sets out measurements from paper PMC4673700.

In experiment [1] the target is GST-fused galectin-1 protein (human) (UniProt P09382).
Experiment [2] addresses PNGase F-treated aflibercept (human). Briefly: BLI; BLItz; aflibercept, PNGase F-treated aflibercept, VEGFR1-Fc or VEGFR2-Fc immobilised on Protein A-coated biosensors; GST-galectin-1 as analyte at various concentrations; PBS; values of empty sensors subtracted.
The target of a further experiment is Aflibercept (human). Described as above.
The target in experiment [3] is PNGase F-treated aflibercept (human). Described as above. The source holds these as a separate data set.

Where two headings read alike, the source gives them in different places.

Chain of GST-fused galectin-1 protein (P09382 whole entry, the tested form may be a part): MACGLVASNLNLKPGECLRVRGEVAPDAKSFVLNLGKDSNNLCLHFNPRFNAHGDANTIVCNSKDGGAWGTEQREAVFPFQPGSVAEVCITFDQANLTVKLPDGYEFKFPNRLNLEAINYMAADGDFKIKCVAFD
Chain of Aflibercept (Fc fusion) (chain): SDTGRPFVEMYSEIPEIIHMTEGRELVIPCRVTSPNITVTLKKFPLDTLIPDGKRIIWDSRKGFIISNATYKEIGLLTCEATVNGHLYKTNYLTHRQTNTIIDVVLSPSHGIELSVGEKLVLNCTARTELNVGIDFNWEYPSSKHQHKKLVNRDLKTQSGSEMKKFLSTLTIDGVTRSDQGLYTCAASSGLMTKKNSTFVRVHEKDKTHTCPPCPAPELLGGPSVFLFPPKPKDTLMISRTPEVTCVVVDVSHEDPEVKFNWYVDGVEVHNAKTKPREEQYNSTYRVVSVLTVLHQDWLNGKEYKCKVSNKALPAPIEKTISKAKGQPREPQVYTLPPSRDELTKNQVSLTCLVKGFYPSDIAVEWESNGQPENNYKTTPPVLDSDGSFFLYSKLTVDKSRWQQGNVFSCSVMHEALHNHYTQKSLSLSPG
Chain of GST-fused galectin-1 protein (human) (P09382 whole entry, the tested form may be a part): as the sequence (P09382 whole entry, the tested form may be a part) above

For Aflibercept (Fc fusion), in experiment [1], the HRMEC proliferation (RealTime-Glo, relative to PBS) with 10 μg/ml galectin-1 for 48 h with 7.5 μg/ml aflibercept (2.77 without aflibercept) is 0.96 fold change.

One may read the Kd as the equilibrium constant for the complex coming apart. A high value points to weaker binding. Broadly, the koff is the first-order rate constant of dissociation. A higher koff goes with fast dissociation. In general, kon refers to the rate constant with which the complex forms. A low value points to slow association. Take “GST-fused galectin-1 protein (from UniProt P09382 1-135) (natural protein)”: the Kd was found to be 869 nM in experiment [2], 23.7 nM with Aflibercept (human) and 868 nM in experiment [3]. In addition, the koff with Aflibercept (human) worked out at 0.000371 s⁻¹; in experiment [3] it was 0.00531 s⁻¹. Also, the association rate constant (kon) with Aflibercept (human) stood at 15700 M⁻¹ s⁻¹; in experiment [3], 6120 M⁻¹ s⁻¹.
